# Assay results from publication PMC3025356, “Mechanism of the Ca^2+-Dependent Interaction between S100A4 and Tail Fragments of Nonmuscle Myosin Heavy Chain IIA” (Journal of Molecular Biology, 2011).
# B1: M200: His-tagged human NM-MHC IIA residues Q1761-E1960, V1913I substitution (protein, UniProt P35579 1761-1960, looked up, variant V1913I)
# chain: QINTDLNLERSHAQKNENARQQLERQNKELKVKLQEMEGTVKSKYKASITALEAKIAQLEEQLDNETKERQAACKQVRRTEKKLKDVLLQVDDERRNAEQYKDQADKASTRLKQLKRQLEEAEEEAQRANASRRKLQRELEDATETADAMNREISSLKNKLRRGDLPFVVPRRMARKGAGDGSDEEVDGKADGAEAKPAE
# modifications: His tag
# notes: His-tagged human NM-MHC IIA residues Q1761-E1960, V1913I substitution
# Experiments:
# [1] = molecular target: T1, S100A4 (Homo sapiens, UniProt P26447); assay: Summary of rate and equilibrium constants defined according to Scheme 1; format: binding
# T1 construct: We used full-length S100A4 for this analysis; made in house; host or cells: Escherichia coli BL21(DE3)
# From the text: The interaction of myosin tail fragments (M) with S100A4 depends on [Ca^2+], with little detectable binding in the absence of Ca^2+.[2,7,17] Scheme 1 presents a minimal pathway describing the thermodynamics and kinetics of this interaction, where arrow lengths indicate the approximate position of the equilibria involved.
# [formula] Scheme 1 Ca2+ and myosin peptide (M) binding to S100A4.
# The binding of Ca^2+ and a target peptide to S100A4, as shown in Scheme 1, is thermodynamically coupled so that K1K2 = K0K3. For simplicity, we assume a 1:1 stoichiometry and independent binding sites, which are unlikely to be true at least for the longer fragments. However, the trends in binding remain valid for more complex cases. Binding of target peptides to S100A4 in the absence of Ca^2+ is weak (K0 > 100 μM), while binding of target peptides to S100A4 in the presence of Ca^2+ (K2) is around a micromolar or less for longer fragments. Knowing that Ca^2+ binding to S100A4 has K1 = 2–5 μM (from the ITC data above and the literature[14,17,18]) requires that Ca^2+ binding to the M–S100A4 complex be very tight (K3 < 0.15 μM and even lower for M200). The latter cannot be easily determined directly as it requires protein concentrations greater than K0 (i.e., >>100 μM) so that the proteins remain bound together throughout the titration with Ca^2+. However, K3 is readily determined by calculation because values or limits for K0, K1, and K2 are available (Table 2). This aspect is addressed further below for M200, which has the complication of forming filaments at the ionic strength used.
# [2] = tested on: M200 filaments; assay: Stopped-flow turbidity, dissociation of M200 filaments on NaCl jump or dilution; format: biochemical, human
# Description: Fig. 9 Dissociation of M200 filaments by S100A4. (a) Initially, M200 was added (i) from a concentrated stock in 0.5 M NaCl to give a final concentration of 5 μM M200 (with respect to the polypeptide chain) in 100 mM NaCl, 10 mM Hepes, and 0.1 mM Ca^2+ at pH 7.5 and 20 °C. A biphasic rise in turbidity was recorded for 200 s (continuous line). Then 10 μM S100A4 (with respect to monomer concentration) was added (ii), followed by 0.2 mM EGTA (iii) and 1 mM Ca^2+ (iv). […] (b) M200 was diluted (i) into 100 mM NaCl to form filaments as in (a), then 5 μM S100A4 was added (ii), causing a 54% drop in turbidity. A further 5 μM S100A4 (iii) caused turbidity to fall to almost zero. (c) Stopped-flow records monitoring the dissociation of 5 μM M200 filaments on jumping [NaCl] from 100 mM to 120 mM NaCl. Other components of the buffer were 20 mM Hepes, 1 mM Mg^2+, and 100 μM Ca^2+ at pH 7.5 and 20 °C. […] In the presence of 20 μM S100A4 (lower trace), the turbidity decreased by 87% with a rate constant of 0.2 s^− 1.
# It is of interest to know whether S100A4 drives depolymerisation solely by binding to free M monomer and allowing the polymer equilibrium to readjust (i.e., via k− 4 and k5), or whether S100A4 also binds to the filament bundle and actively depolymerises an M200 unit (via k6 and k− 7). […] In an attempt to address this question, the dissociation rate of the M200 filament was followed on jumping the NaCl concentration from 100 mM to 120 mM in the absence and in the presence of S100A4 (Fig. 9c). Under these conditions in the absence of S100A4, turbidity dropped to about 50% of its initial value with a profile fitted to a double exponential (k1obs = 0.33 s^− 1 with 12% amplitude and k2obs = 0.037 s^− 1 with 43% amplitude, relative to the total amplitude expected for a full dissociation). Therefore, at the end point of this reaction, the filament concentration decreased by about 2-fold (turbidity is proportional to concentration over this range; Fig. S5b). There should also be a corresponding rise in M200 monomer concentration, but this may be less than accounted for by the loss of filaments if the drop in turbidity was also associated with a rise in small M200 oligomers with a lower specific turbidity. […]
# T1 sequence (P26447 whole entry): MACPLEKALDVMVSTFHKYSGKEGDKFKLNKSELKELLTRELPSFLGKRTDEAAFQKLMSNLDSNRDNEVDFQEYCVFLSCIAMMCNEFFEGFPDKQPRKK
molecule,measurement,setting,value
B1,k3,[1]; Ca^2+ association to peptide–S100A4,> 2000 μM^− 1 s^− 1
same,Kd,"[1]; Ca^2+ binding to peptide–S100A4, limit from K3 = K1K2/K0, read-out: K3",< 0.15 nM
same,k− 3,[1]; Ca^2+ dissociation from peptide–S100A4–Ca^2+,0.3 s^− 1
same,k− 2,[1]; peptide dissociation from S100A4–Ca^2+,< 0.3 s^− 1
same,turbidity change on dilution relative to that with S100A4,"[2]; 2-fold dilution at 100 mM NaCl, no S100A4",10%
same,"fast rate constant, no S100A4",[2]; NaCl jump 100 to 120 mM,0.33 s^− 1
same,"slow rate constant, no S100A4",[2]; NaCl jump 100 to 120 mM,0.037 s^− 1
same,turbidity of initial value after NaCl jump,"[2]; NaCl jump, no S100A4",about 50%
